From patent US20190175515A1, “CHOLESTERYL ESTER VESICLES LOADING PEPTIDES, PROTEINS AND NUCLEIC ACIDS INTO CHYLOMICRONS AND BODY CELLS” (priority 2016, published 2019)
Residues, ends and D or L forms follow the SMILES beside them. *: point of attachment. Cbz = O=C(OCc1ccccc1)*

What was measured:
MCF-7 cells [1] = assay: Pilot study of MG-132 on MCF-7 cells exposed to 1117 insulin-cholestosomes; assay type: cell-based, human
Description: A pilot study was performed whereby […] to MCF -7 cells that were also exposed to 1117 insulin-cholestosomes.

[2] = rats, chitosan nanoparticles; cited from earlier work
MCF-7 cells [3] = assay: FITC cholestosome (myristate/palmitate) uptake in MCF-7 cells, fluorescent imaging; assay type: cell-based, human
Description: In this experiment, 22 ug of FITC formulation was placed on MCF-7 cells, Fluorescent imaging was performed over time, with images taken at 2, 4, 8 and 24 hours.

[4] = Temperature stability of insulin; assay type: physicochemical
Description: Once there is the addition of the aqueous molecule or construct, the mixture is sonicated until there is a cloudy solution formed, thereby minimizing waste from un-dissolved esters, with sonication providing energy for unilamellar vesicle formation. The aqueous component is also maintained at the target temperature prior to its addition, and as stated previously for most peptides, proteins and genes, the highest temperature that can be tolerated is only about 45-50° C.
On the basis of these finding and considering the stability of the proteins and peptides being formulated, including insulin by way of example, the operating temperature of encapsulation procedures was kept,between 40 and 55 degrees centigrade. […] By way of example, optimal insulin preparation was at 37-55 degrees centigrade.

[5] = assay type: in vivo; conditions: rats
Description: These experiments were conducted to evaluate the comparative plasma and tissue to plasma ratios of insulin between a cholesterol-encapsulated insulin formulation (cholestosome-insulin) administered by oral gavage and by subcutaneous injection, both compared with the same insulin administered subcutaneously (s.c.) In healthy female Wistar rats.
This study was designed for comparison of insulin bioavailability from the formulations administered, which is defined by the Area under the curve (AUC) calculated as the ratio of Oral to […] over 24 hours following the dosing of the formulation,
Sixteen healthy female Wistar rats ranging from 246.5 to 292.8 g in body weight were distributed into three study groups. Two 6-rat cohorts were dosed with cholestosome insulin oral and SC injection and the remaining 4 rats were given subcutaneous regular insulin as controls. Each rat was dosed with 1.0 ml/animal of a solution identified by Sponsor with cage number and rat number only. Two groups of female Wistar rats were fasted, ranging in duration from 3 hr prior—to 1 hr post-dosing. Rats had free access to water at all times. […] Rats were monitored daily for mortality and morbidity, including signs of hypoglycemia. […]
Results. […] All AUG values were corrected for actual dose given (subtracting residual returned) and expressed as AUG to a dose of 0.25 units, which was approximately 1 unit/kg of body weight. […]

[6] = Insulin solubility and integrity versus pH (HPLC); assay type: physicochemical
Description: Many preparations of cholestosome insulin have been made. […] Accordingly, the solubility limits of Insulin were empirically tested at pH 3.5, 6, 7 and 8. Data on the […] of each formulation are plotted by pH of the insulin solution are plotted at two different ionic strengths of PBS buffer in FIG. 9.
The maximum concentration at each tested pH was applied to the following: Stock solutions for each pH and ionic strength combination are prepared. The empirically determined maximum concentration of Human Recombinant Insulin (SAFC Biosciences and. ProSpec) was added to the stock solution. These stock solutions were then readjusted to the desired pH using either 1M HCl or 1M NaOH as needed 5.0 ml of stock solution was heated to 55° C. and used as the aqueous component in preparations.

melanoma = conditions: patients with melanoma; cited from earlier work
[7] = Eligen proteinaceous coating and SNAC; cited from earlier work

Description for Caco-2 cells: Caco-2 intestinal epithelial cells were gown in Dulbecco's Modified Eagle's Media (DMEM) supplemented with 20% fetal bovine serum (heat inactivated), 1 nM sodium pyruvate, 100 U/ml penicillin, 100 μg/ml streptomycin, 292 μg/ml L-Glutamine and 1× MEM non-essential amino acids (Invitrogen, #11140). Cells were cultured in 75 cm^2 flasks and incubated in a 37° C. and 5% CO2 environment until 80-90% confluent. The Biocoat HTS Caco-2 assay system (Becton Dickson, #0354802) was used for transport studies. Cells were seeded at a density of 3×10^5 cells/well and differentiated into enterocyte-like cells using, the manufacturer's protocol. This system used a special fibrillar collagen insert and a serum free differentiation medium enhanced with butyric acid, hormones, growth factors and metabolites to establish a differentiated monolayer in 3 days instead of the 21 days that is normally required for this process. This involved incubation of the cells with a DMEM based media containing 10% FBS for 48 hours at 37° C., 5% CO2 after seeding to establish a growth phase. The media was then replaced by the defined differentiation media and incubated for another 48 hours. At this point the Caco-2 cells are ready for further studies.
The differentiated Caco-2 cells were used for the production of Chylomicrons using the method of Luchoomun and Hussain-1999 (21). This method uses supplementation with oleic acid (OA) and taurocholate (TC) at a 1.6:1.0 mM ratio to achieve chylomicrons production. The OA:TC solution was made up in the DMEM based cell growth media used in the BIOCOAT differentiation protocol by adding OA to a 10 mM TC solution and incubated at 37° C. until clear. This was then 0.2 u filtered and used immediately for the transport studies. Treatments plus OA:TC were added in a 450 ul volume to the apical side of the well and incubated for 24 hours for transport studies and chylomicrons production. PBS plus lingind glucose was added in a 1ml volume to the basolateral side. […]

In the case of `CC(C)C[C@@H](C=O)NC(=O)[C@H](CC(C)C)NC(=O)[C@H](CC(C)C)NC(=O)OCc1ccccc1` [MG-132] (Cbz-Leu-Leu-Leu-aldehyde), the “effect on exocytosis of insulin-cholestosomes” value (MCF-7 cells [1]) was “caused the likely exocytosis of more intact insulin-cholestosomes”.
In the case of Aspart Insulin, the “oral bioavailability of insulin” value [2] is given as 17%.
For “FITC-insulin: FITC labeled regular insulin purchased commercially, unencapsulated”, the “FITC signal found in the Caco-2 cells” value (Caco-2 cells; Caco-2) was “about 1%” and the “FITC signal remaining on the apical side” value (Caco-2 cells; human, Caco-2, 24 h) was ~100%.
With Fluorescein Isothiocyanate [FITC] the “uptake / fluorescence, encapsulated FITC and FITC alone” value (MCF-7 cells [3]) was “uptake of FITC itself into MCF-7 cells”.
In the case of “Insulin: Human Recombinant Insulin made in bacteria”, the “oral bioavailability of insulin” value [2] is listed as 17-20%, the “stability across operating temperature range” value ([4]; between 40 and 55 degrees centigrade) is listed as “stable” and the “temperature up to which insulin remains stable” value ([4]; under certain conditions) is listed as “up to 55 °C”. The “signs of drug toxicity or severe hypoglycemia” value [5] was “No signs of drug toxicity or severe hypoglycemia”, the tolerability ([5]; oral and SC (cholestosome), SC (regular insulin)) was “well tolerated” and the Insulin solubility ([6]; pH 8.0) was “high”. The “integrity of insulin by HPLC analysis” value ([6]; pH (8) environment) was “breaks down the insulin A/B Dimer”.
With “acid protected insulin: insulin protected from acid but not cholestosome encapsulated, Caco-2 control” the “insulin passing the apical Caco-2 barrier” value (Caco-2 cells; Caco-2) was < 5%.
In the case of ipilimumab: CTLA-4 antibody, the “overall tumor response (OR) rate” value (melanoma) is given as 11%.
In the case of “semaglutide: a GLP-1 agonist under development by Novo Nordisk”, the oral bioavailability [7] is given as 2.5%.
